From patent US20100310509A1 (published 2010)

Legend:
[1] = target: T1, gp130 bound OSM-M1 (gp130:OSM-M1) (human, UniProt P40189 23-619); assay: ELISA, apparent KD (KD,App), gp130 coated, saturating cytokine, soluble OSMR titrated (with gp130)
T1 construct: extracellular domain; Non-covalent complex formed on the plate: gp130 coated, then 200 nM OSM-M1; also called OSM-M1 with gp130; not shown: N-terminal FLAG tag
T1 sequence 1: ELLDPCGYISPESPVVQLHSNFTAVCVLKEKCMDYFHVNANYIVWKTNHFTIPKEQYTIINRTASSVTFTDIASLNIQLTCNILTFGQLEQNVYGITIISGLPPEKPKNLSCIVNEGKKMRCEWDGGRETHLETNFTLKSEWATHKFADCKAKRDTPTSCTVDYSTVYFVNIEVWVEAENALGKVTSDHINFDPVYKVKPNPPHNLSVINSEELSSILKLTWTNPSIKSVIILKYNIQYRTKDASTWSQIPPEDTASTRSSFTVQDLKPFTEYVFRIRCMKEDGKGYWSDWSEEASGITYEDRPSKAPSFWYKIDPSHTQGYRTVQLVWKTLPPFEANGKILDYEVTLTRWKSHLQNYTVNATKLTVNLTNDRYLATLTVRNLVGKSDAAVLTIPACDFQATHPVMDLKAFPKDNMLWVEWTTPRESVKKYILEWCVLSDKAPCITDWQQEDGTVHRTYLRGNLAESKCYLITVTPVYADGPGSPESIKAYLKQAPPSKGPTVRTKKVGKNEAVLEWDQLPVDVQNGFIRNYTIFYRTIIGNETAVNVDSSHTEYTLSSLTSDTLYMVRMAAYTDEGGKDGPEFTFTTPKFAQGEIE
T1 sequence 2: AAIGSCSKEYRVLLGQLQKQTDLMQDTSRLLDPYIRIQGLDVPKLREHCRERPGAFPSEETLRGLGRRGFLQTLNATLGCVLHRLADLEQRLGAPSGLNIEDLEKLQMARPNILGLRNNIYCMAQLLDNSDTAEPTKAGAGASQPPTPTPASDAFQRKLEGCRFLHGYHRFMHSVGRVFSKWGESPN
Method: (§1) FIG. 13 graphically depicts an ELISA analysis of soluble OSMR and soluble LIFR binding with LIF, OSM-WT, OSM-M1 and OSM-M2 or gp130 bound LIF (gp130:LIF), OSM-WT (gp130:OSM-WT), OSM-M1 (gp130:OSM-M1) and OSM-M2 (gp130:OSM-M2). Cytokines (LIF, OSM-WT, OSM-M1 or OSM-M2) immobilized on an ELISA plate in the absence (A,C) or presence (B,D) of gp130 were treated with various concentrations of soluble OSMR (A,B) or soluble LIFR (C,D). Equilibrium KD values were estimated using a non-linear curve fitting to the binding data using GraphPad Prism (Graph Pad Software. LaJolla, Calif.). In addition, see Table 3.
(§2) Enzyme-linked immunosorbent assay (ELISA): ELISA was used to evaluate the equilibrium binding strength of the interaction between the cytokines and their receptors. This technique has traditionally been used as a sensitive method to quantify the binding affinities between two interacting proteins. However, unlike in SPR, ELISA involves immobilization of the proteins on a flat plastic surface driven by hydrophobic and ionic interactions. This might cause some distortion in the 3 dimensional structure of immobilized protein which leads to inaccuracies in the estimation of dissociation constants. It is thus important to bear in mind that the values estimated using this technique are to be used only for comparison between species but not as true equilibrium binding constants. The results obtained using this technique will thus be presented as apparent equilibrium dissociation constants (K_{D,App}). For direct interaction studies, cytokines (LIF, OSM-WT, OSM-M1 or OSM-M2) were immobilized on the 96 well ELISA plate by incubating the wells with 200 μl of 5 nM cytokine solution in PBS, pH 7.4 overnight at 4° C. The wells were then blocked with blocking buffer (4% BSA in PBS) for 1 hour at room temperature. […]

[2] = target: T2, gp130 bound OSM-M2 (gp130:OSM-M2) (human, UniProt P40189 23-619); assay: as above
T2 construct: extracellular domain; Non-covalent complex formed on the plate: gp130 coated, then 200 nM OSM-M2; also called OSM-M2 with gp130; not shown: N-terminal FLAG tag
T2 sequence 1: T1 sequence 1
T2 sequence 2: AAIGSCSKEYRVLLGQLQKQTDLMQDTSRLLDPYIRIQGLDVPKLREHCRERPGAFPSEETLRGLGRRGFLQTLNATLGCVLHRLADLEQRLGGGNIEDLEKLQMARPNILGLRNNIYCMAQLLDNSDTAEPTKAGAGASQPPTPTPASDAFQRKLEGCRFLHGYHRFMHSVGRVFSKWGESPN
Method: as §1, §2

[3] = target: T3, gp130 bound OSM-WT (gp130:OSM-WT) (human, UniProt P40189 23-619); assay: as above
T3 construct: extracellular domain; Non-covalent complex formed on the plate: gp130 coated, then 200 nM OSM-WT; also called OSM-WT with gp130; not shown: N-terminal FLAG tag
T3 sequence 1: T1 sequence 1
T3 sequence 2: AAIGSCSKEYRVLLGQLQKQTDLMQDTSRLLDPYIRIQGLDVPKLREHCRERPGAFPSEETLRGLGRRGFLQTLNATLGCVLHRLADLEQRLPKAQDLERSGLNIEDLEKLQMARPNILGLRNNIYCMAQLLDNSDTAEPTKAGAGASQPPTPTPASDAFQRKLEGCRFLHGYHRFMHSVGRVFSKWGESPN
Method: as §1, §2

[4] = target: T4, gp130 bound LIF (gp130:LIF) (human, UniProt P40189 23-619; P15018 23-202); assay: ELISA, gp130 coated and loaded with LIF, soluble OSMR titrated, anti-OSMR detection, O.D at 450 nm
T4 construct: Non-covalent complex formed on the plate: gp130 coated, then saturating cytokine; also called LIF with gp130
T4 sequence (P15018 23-202 limits assumed, one chain of several): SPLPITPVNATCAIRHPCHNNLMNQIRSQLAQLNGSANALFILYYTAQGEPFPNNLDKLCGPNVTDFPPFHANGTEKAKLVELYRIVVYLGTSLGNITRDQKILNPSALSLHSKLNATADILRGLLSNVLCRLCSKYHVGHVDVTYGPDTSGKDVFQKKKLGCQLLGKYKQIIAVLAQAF

B1: soluble human OSMR (Oncostatin M receptor) (receptor, UniProt Q99650 28-740, looked up)
chain: ERLPLTPVSLKVSTNSTRQSLHLQWTVHNLPYHQELKMVFQIQISRIETSNVIWVGNYSTTVKWNQVLHWSWESELPLECATHFVRIKSLVDDAKFPEPNFWSNWSSWEEVSVQDSTGQDILFVFPKDKLVEEGTNVTICYVSRNIQNNVSCYLEGKQIHGEQLDPHVTAFNLNSVPFIRNKGTNIYCEASQGNVSEGMKGIVLFVSKVLEEPKDFSCETEDFKTLHCTWDPGTDTALGWSKQPSQSYTLFESFSGEKKLCTHKNWCNWQITQDSQETYNFTLIAENYLRKRSVNILFNLTHRVYLMNPFSVNFENVNATNAIMTWKVHSIRNNFTYLCQIELHGEGKMMQYNVSIKVNGEYFLSELEPATEYMARVRCADASHFWKWSEWSGQNFTTLEAAPSEAPDVWRIVSLEPGNHTVTLFWKPLSKLHANGKILFYNVVVENLDKPSSSELHSIPAPANSTKLILDRCSYQICVIANNSVGASPASVIVISADPENKEVEEERIAGTEGGFSLSWKPQPGDVIGYVVDWCDHTQDVLGDFQWKNVGPNTTSTVISTDAFRPGVRYDFRIYGLSTKRIACLLEKKTGYSQELAPSDNPHVLVDTLTSHSFTLSWKDYSTESQPGFIQGYHVYLKSKARQCHPRFEKAVLSDGSECCKYKIDNPEEKALIVDNLKPESFYEFFITPFTSAGEGPSATFTKVTTPDEHSSM
notes: extracellular domain; Bought; also called soluble OSMR
In the case of B1, the Kd [1] is reported as 3.71 nM, the Kd [2] is reported as 2.19 nM and the Kd [3] is reported as 10.9 nM. B1: no binding (tested: 75 nM) [4].
